# The supplement of paper PMC7877785
# ± gives the uncertainty stated by the source.
# Assay: self-splicing fitness, log relative to wild type (ln ratio); higher = more splicing; Tetrahymena group I intron in knt gene, E. coli kanamycin selection, DiMSum; sequences stand for … in CUCUCU…GGAGGGAAAAGUUAUCAGGCAUGCACCUGGUAGCUAGUCUUUAAACCAAUAGAUUGCAUCGGUUUAAAAGGCAAGACCGUCAAAUUGCGGGAAAGGGGUCAACAGCCGUUCAGUACCAAGUCUCAGGGGAAACUUUGAGAUGGCCUUGCAAAGGGUAUGGUAAUAAGCUGACGGACAUGGUCCUAACCACGCAGCCAAGUCCUAAGUCAACAGAUCUUCUGUUGAUAUGGAUGCAGUUCACAGACUAAAUGUCGGUCGGGGAAGAUGUAUUCUUCUCAUAAGAUAUAGUCGGACCUCUCCUUAAUGGGAGCUAGCGGAUGAAGUGAUGCAACACUGGAGCCGCUGGGAACUAAUUUGUAUGCGAAAGUAUAUUGAUUAGUUUUGGAGUACUCGUGGUCG
# Method in brief: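 The eight P1ex-region nucleotides of an intron in the knt kanamycin-resistance gene on pET-22b(+) were all randomised and the library put into E. coli BL21(DE3). Six replicate transformations were grown overnight at 37°C or 30°C on LB agar with or without 25 μg/mL kanamycin, together with 100 μg/mL carbenicillin, 50 μM IPTG and 0.2% rhamnose. Colonies were pooled and amplicon-sequenced on an Illumina HiSeq 2500. Fitness from DiMSum is the error-weighted combination of wild-type-normalised replicate fold changes, kanamycin over none.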
Sequence,self-splicing fitness (ln) (30 °C),self-splicing fitness (ln) (37 °C)
AUCGAGCAAUAUUACGUCGC,-2.55 ± 0.28,-2.21 ± 0.29
AUCGAGCAAUAUUACGUCUA,-3.26 ± 0.32,-0.994 ± 0.13
AUCGAGCAAUAUUACGUGAU,,-1.87 ± 0.43
AUCGAGCAAUAUUACGUGCG,-4 ± 0.29,-1.73 ± 0.13
AUCUAGCAAUAUUACGAAGU,-0.522 ± 0.24,-0.543 ± 0.31
AUCUAGCAAUAUUACGACCG,-0.961 ± 0.39,-0.253 ± 0.33
AUCUAGCAAUAUUACGCAUA,-2.4 ± 0.18,-1.69 ± 0.15
AUCUAGCAAUAUUACGCAUU,-1.48 ± 0.1,-0.414 ± 0.1
AUCUAGCAAUAUUACGCCUC,-1.62 ± 0.19,-1.33 ± 0.34
AUCUAGCAAUAUUACGCUCU,-0.469 ± 0.11,-0.244 ± 0.12
AUCUAGCAAUAUUACGGACA,-0.495 ± 0.14,0.224 ± 0.13
AUCUAGCAAUAUUACGGAGA,-2.16 ± 0.2,-1.32 ± 0.16
AUCUAGCAAUAUUACGGAUU,-4.46 ± 0.32,-2.38 ± 0.23
AUCUAGCAAUAUUACGGCGC,-0.932 ± 0.11,-0.0721 ± 0.14
AUCUAGCAAUAUUACGGCUG,-1.21 ± 0.14,0.594 ± 0.18
AUCUAGCAAUAUUACGGUCG,-2.96 ± 0.22,0.125 ± 0.18
AUCUAGCAAUAUUACGGUGG,-4.43 ± 0.46,-2.53 ± 0.19
AUCUAGCAAUAUUACGGUGU,-2.17 ± 0.076,-0.462 ± 0.081
AUCUAGCAAUAUUACGUAAG,-2.37 ± 0.12,-1.16 ± 0.15
AUCUAGCAAUAUUACGUAGU,-1.83 ± 0.096,-0.758 ± 0.11
AUCUAGCAAUAUUACGUCCG,-1.67 ± 0.2,-1.42 ± 0.28
AUCUAGCAAUAUUACGUCGG,-3.23 ± 0.2,-2.72 ± 0.27
AUCUAGCAAUAUUACGUCUG,-1.72 ± 0.14,-0.625 ± 0.14
AUGAAGCAAUAUUACGAAAA,-2.58 ± 0.17,-0.92 ± 0.15
AUGAAGCAAUAUUACGAAUA,-1.17 ± 0.11,-0.537 ± 0.17

Sequence,self-splicing fitness (ln) (30 °C),self-splicing fitness (ln) (37 °C)
AUGAAGCAAUAUUACGACUC,0.055 ± 0.11,0.123 ± 0.13
AUGAAGCAAUAUUACGACUG,-0.375 ± 0.097,-0.617 ± 0.11
AUGAAGCAAUAUUACGAUGG,-3.18 ± 0.18,-1.92 ± 0.16
AUGAAGCAAUAUUACGCAAU,-1.03 ± 0.11,-0.743 ± 0.12
AUGAAGCAAUAUUACGCCCA,0.226 ± 0.22,0.0745 ± 0.25
AUGAAGCAAUAUUACGCCUC,-0.0224 ± 0.2,-1.19 ± 0.33
AUGAAGCAAUAUUACGCGGC,-2.46 ± 0.31,-2.26 ± 0.29
AUGAAGCAAUAUUACGCUAU,-1.47 ± 0.091,-1.21 ± 0.12
AUGAAGCAAUAUUACGGACG,-0.554 ± 0.066,0.536 ± 0.091
AUGAAGCAAUAUUACGGAGC,-3.69 ± 0.39,-1.72 ± 0.2
AUGAAGCAAUAUUACGGAUA,-0.747 ± 0.088,-0.113 ± 0.11
AUGAAGCAAUAUUACGGCGU,0.47 ± 0.064,0.205 ± 0.078
AUGAAGCAAUAUUACGGCUU,-4.22 ± 0.24,-3.03 ± 0.21
AUGAAGCAAUAUUACGGGCC,-1.73 ± 0.29,-0.73 ± 0.22
AUGAAGCAAUAUUACGGUAC,-1.71 ± 0.14,-0.139 ± 0.13
AUGAAGCAAUAUUACGGUGA,-0.607 ± 0.069,0.195 ± 0.096
AUGAAGCAAUAUUACGGUGU,-1.33 ± 0.062,-0.601 ± 0.078
AUGAAGCAAUAUUACGGUUC,-1.29 ± 0.099,-1.8 ± 0.15
AUGAAGCAAUAUUACGUCCA,-0.138 ± 0.075,0.611 ± 0.11
AUGAAGCAAUAUUACGUGGC,-3.92 ± 0.25,-2.56 ± 0.31
AUGAAGCAAUAUUACGUGUC,-2.97 ± 0.28,-2.26 ± 0.34
AUGAAGCAAUAUUACGUUUA,-0.538 ± 0.061,-0.537 ± 0.079
AUGCAGCAAUAUUACGAAGC,-3.21 ± 0.19,-0.72 ± 0.21
AUGCAGCAAUAUUACGACCC,-0.995 ± 0.2,-0.303 ± 0.31
AUGCAGCAAUAUUACGACUC,-0.57 ± 0.11,0.501 ± 0.11

Sequence,self-splicing fitness (ln) (30 °C),self-splicing fitness (ln) (37 °C)
AUGCAGCAAUAUUACGACUG,-3.44 ± 0.23,-2.8 ± 0.31
AUGCAGCAAUAUUACGAGAA,-3.47 ± 0.32,-2.64 ± 0.34
AUGCAGCAAUAUUACGCCAC,-2.31 ± 0.47,-2.1 ± 0.36
AUGCAGCAAUAUUACGCGCA,-1.91 ± 0.14,-1.39 ± 0.099
AUGCAGCAAUAUUACGCGCU,-1.37 ± 0.097,-1.22 ± 0.12
AUGCAGCAAUAUUACGCUCA,-0.858 ± 0.061,-0.215 ± 0.075
AUGCAGCAAUAUUACGCUCG,-1.89 ± 0.11,-0.774 ± 0.13
AUGCAGCAAUAUUACGGAAC,,-2.76 ± 0.36
AUGCAGCAAUAUUACGGAAG,-3.07 ± 0.16,-2.01 ± 0.2
AUGCAGCAAUAUUACGGAGU,-1.78 ± 0.093,-1.44 ± 0.11
AUGCAGCAAUAUUACGGCCC,-0.0496 ± 0.14,0.777 ± 0.19
AUGCAGCAAUAUUACGGCCG,-1.62 ± 0.27,-1.05 ± 0.3
AUGCAGCAAUAUUACGGCGU,-4.06 ± 0.24,-1.76 ± 0.2
AUGCAGCAAUAUUACGGCUG,-2.78 ± 0.15,-1.68 ± 0.23
AUGCAGCAAUAUUACGGGUA,-1.56 ± 0.13,-1.12 ± 0.14
AUGCAGCAAUAUUACGUAAC,-2.78 ± 0.2,-0.366 ± 0.15
AUGCAGCAAUAUUACGUCAG,-2.17 ± 0.092,-1.12 ± 0.11
AUGCAGCAAUAUUACGUUCU,-0.207 ± 0.058,0.262 ± 0.079
AUGGAGCAAUAUUACGAACA,-1.55 ± 0.38,
AUGGAGCAAUAUUACGACGA,,0.0911 ± 0.24
AUGGAGCAAUAUUACGAUCU,,-0.713 ± 0.31
AUGGAGCAAUAUUACGCAAA,-2.21 ± 0.36,
AUGGAGCAAUAUUACGCAAU,-1.33 ± 0.19,-1.44 ± 0.24
AUGGAGCAAUAUUACGCAGA,-2.19 ± 0.32,
AUGGAGCAAUAUUACGCAGG,-3.69 ± 0.26,-2.89 ± 0.4

Sequence,self-splicing fitness (ln) (30 °C),self-splicing fitness (ln) (37 °C)
AUGGAGCAAUAUUACGCCCA,-1.95 ± 0.27,-1.03 ± 0.26
AUGGAGCAAUAUUACGCGAG,-2.22 ± 0.3,
AUGGAGCAAUAUUACGGCGG,-3.85 ± 0.37,-1.82 ± 0.34
AUGGAGCAAUAUUACGGUUA,,-2.16 ± 0.34
AUGGAGCAAUAUUACGGUUC,-3.93 ± 0.42,-2.56 ± 0.38
AUGGAGCAAUAUUACGUAAG,-2.69 ± 0.2,-0.735 ± 0.17
AUGGAGCAAUAUUACGUAUU,-3.29 ± 0.24,-2.21 ± 0.16
AUGGAGCAAUAUUACGUCAG,-2.47 ± 0.32,-1.41 ± 0.44
AUGGAGCAAUAUUACGUUCU,-2.64 ± 0.22,-3.2 ± 0.4
AUGGAGCAAUAUUACGUUUG,-3.38 ± 0.29,-2.58 ± 0.36
AUGUAGCAAUAUUACGAAAU,-1.92 ± 0.086,-0.989 ± 0.11
AUGUAGCAAUAUUACGAAUG,-2.89 ± 0.28,-2.37 ± 0.29
AUGUAGCAAUAUUACGACCA,-0.549 ± 0.17,-0.552 ± 0.17
AUGUAGCAAUAUUACGACCC,-0.73 ± 0.26,-0.517 ± 0.3
AUGUAGCAAUAUUACGACGU,-0.432 ± 0.087,0.442 ± 0.095
AUGUAGCAAUAUUACGAGAA,-2.68 ± 0.39,-1.01 ± 0.22
AUGUAGCAAUAUUACGAUCC,-0.944 ± 0.14,-0.204 ± 0.15
AUGUAGCAAUAUUACGAUCU,-0.222 ± 0.056,0.524 ± 0.073
AUGUAGCAAUAUUACGCACA,-0.084 ± 0.13,0.428 ± 0.17
AUGUAGCAAUAUUACGCAGA,-2.74 ± 0.36,0.109 ± 0.18
AUGUAGCAAUAUUACGCAUC,-3.66 ± 0.27,-2.51 ± 0.45
AUGUAGCAAUAUUACGCCAC,-3.49 ± 0.36,
AUGUAGCAAUAUUACGCGAG,-1.71 ± 0.13,-0.706 ± 0.13
